The values below come from article PMC6900432, “Zinc binding regulates amyloid-like aggregation of GAPR-1” (Bioscience Reports, 2019).

This series deals with the molecule itself. As to the kind of experiment: non-reducing SDS/PAGE and Western blot of oligomers; 15 uM GAPR-1 with 37.5 uM heparin and 100 uM Zn2+ in NT-50 buffer (25 mM Tris, 50 mM NaCl, pH 7.4) at 37 C; aliquots at 0, 2, 7 and 20 h, non-reducing Laemmli buffer, boiled 5 min; blot with rabbit polyclonal anti-GAPR-1.

B1: Golgi-Associated plant Pathogenesis Related protein 1 (GAPR-1), wild type (natural protein)
chain: MGKSASKQFHNEVLKAHNEYRQKHGVPPLKLCKNLNREAQQYSEALASTRILKHSPESSRGQCGENLAWASYDQTGKEVADRWYSEIKNYNFQQPGFTSGTGHFTAMVWKNTKKMGVGKASASDGSSFVVARYFPAGNVVNEGFFEENVLPPKK
notes: GAPR-1 (GLIPR-2), UniProt Q9H4G4 as printed; No tag is named; purification was by cation exchange; also called GAPR-1 WT; GLIPR-2; source: E. coli XL-1 Blue, purified (cation exchange, SP Sepharose FF)
Regarding B1, the binding result is “binds”.
